Columns and labels:
[1] = target: CD163 on human cells (human) (UniProt Q86VB7); assay: flow cytometry with quantification beads, CD14+ monocytes in human whole blood, n=3 donors
[2] = target: CD163 on human cells (human) (UniProt Q86VB7); assay: flow cytometry with quantification beads, CD14+ monocytes of human PBMC, n=5 donors (one outlier donor)
[3] = target: T1, human VISTA on cells (human) (UniProt Q9H7M9); assay: flow cytometry, AF488-labelled control antibody on human monocytes, MFI normalised to INX200 at 0 min
T1 sequence: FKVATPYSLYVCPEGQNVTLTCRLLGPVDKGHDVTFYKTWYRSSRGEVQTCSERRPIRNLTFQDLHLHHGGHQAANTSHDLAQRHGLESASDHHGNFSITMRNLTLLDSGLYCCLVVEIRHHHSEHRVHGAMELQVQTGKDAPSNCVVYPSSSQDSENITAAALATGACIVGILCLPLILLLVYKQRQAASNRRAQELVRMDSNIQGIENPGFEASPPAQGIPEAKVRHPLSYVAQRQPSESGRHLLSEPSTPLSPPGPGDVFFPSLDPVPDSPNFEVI

Chain of CD163 on human cells (human) (Q86VB7 42-1156): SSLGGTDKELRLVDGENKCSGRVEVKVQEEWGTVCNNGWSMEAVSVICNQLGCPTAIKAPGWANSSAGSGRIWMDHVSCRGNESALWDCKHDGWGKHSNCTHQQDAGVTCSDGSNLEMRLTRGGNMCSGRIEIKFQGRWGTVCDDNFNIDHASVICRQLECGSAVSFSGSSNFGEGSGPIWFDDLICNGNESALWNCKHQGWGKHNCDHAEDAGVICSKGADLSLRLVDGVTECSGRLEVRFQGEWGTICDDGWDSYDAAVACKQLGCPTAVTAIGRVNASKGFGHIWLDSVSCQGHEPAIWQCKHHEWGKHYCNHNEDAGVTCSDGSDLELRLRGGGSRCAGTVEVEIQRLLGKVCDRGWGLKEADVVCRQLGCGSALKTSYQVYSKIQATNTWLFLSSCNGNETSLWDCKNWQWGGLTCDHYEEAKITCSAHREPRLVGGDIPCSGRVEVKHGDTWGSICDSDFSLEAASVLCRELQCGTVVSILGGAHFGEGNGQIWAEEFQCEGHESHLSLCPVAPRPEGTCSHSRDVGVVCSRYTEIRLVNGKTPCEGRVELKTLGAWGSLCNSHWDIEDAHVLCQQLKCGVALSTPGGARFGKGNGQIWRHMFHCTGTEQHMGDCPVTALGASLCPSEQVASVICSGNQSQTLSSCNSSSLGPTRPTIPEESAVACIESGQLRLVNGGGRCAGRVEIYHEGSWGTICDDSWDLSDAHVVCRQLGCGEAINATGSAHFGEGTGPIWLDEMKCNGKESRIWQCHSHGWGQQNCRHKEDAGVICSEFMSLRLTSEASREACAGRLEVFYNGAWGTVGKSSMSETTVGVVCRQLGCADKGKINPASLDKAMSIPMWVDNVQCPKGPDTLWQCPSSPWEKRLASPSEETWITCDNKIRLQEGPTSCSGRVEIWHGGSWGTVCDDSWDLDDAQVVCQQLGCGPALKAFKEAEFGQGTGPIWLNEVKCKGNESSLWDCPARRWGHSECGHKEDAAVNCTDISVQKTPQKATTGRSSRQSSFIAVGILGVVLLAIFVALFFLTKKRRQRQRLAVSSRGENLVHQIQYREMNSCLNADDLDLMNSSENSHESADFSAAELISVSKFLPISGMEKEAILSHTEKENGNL

| antibody binding capacity (ABC) [1] | antibody binding capacity (ABC) (ABC (molecules per cell)) [2] | nonspecific signal at 0 min relative to INX200 (% of MFI) [3] | Substance |
| --- | --- | --- | --- |
| 13100 molecules | 36700 |  | CD163 Alexa Fluor 647 clone GHI/61 (antibody) |
|  |  | 5.9% | Human IgG1si (antibody) |

From patent US20230310634A1, “ANTI-HUMAN VISTA ANTIBODIES AND USE THEREOF” (IMMUNEXT, INC., priority 2020, published 2023)
